Sequences and labels used below:
T1: LRP6e1e2 (UniProt O75581 20-630, limits assumed, C-terminally biotinylated)
T1 construct: domain: E1E2; also called LRP6 E1E2 domains
T1 sequence (looked up): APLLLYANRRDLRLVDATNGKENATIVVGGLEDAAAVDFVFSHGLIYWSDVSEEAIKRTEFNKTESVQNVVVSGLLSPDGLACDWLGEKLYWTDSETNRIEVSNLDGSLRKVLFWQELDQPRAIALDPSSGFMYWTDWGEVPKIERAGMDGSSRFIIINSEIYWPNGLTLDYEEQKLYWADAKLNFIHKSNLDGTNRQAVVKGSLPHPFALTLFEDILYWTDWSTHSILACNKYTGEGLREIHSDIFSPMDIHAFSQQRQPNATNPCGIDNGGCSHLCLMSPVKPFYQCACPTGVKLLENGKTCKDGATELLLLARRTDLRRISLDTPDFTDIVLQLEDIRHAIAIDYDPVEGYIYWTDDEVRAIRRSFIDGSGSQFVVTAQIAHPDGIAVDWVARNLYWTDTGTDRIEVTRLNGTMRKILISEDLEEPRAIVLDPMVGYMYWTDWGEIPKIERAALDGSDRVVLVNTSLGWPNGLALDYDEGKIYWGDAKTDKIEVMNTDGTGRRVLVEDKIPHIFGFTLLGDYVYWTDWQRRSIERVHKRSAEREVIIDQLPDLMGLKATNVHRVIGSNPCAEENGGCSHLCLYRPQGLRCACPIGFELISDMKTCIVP

T2: LRP6E3E4_O75581_631-1246 (Homo sapiens (Human), UniProt O75581 631-1246, biotinylated in the BLI/SPR assays (C-terminal biotin acceptor peptide))
T2 construct: The entry holds residues 631-1246 of UniProt O75581 followed by a biotin acceptor peptide and eight His; For crystals the complex was treated with carboxypeptidase A and B
T2 sequence: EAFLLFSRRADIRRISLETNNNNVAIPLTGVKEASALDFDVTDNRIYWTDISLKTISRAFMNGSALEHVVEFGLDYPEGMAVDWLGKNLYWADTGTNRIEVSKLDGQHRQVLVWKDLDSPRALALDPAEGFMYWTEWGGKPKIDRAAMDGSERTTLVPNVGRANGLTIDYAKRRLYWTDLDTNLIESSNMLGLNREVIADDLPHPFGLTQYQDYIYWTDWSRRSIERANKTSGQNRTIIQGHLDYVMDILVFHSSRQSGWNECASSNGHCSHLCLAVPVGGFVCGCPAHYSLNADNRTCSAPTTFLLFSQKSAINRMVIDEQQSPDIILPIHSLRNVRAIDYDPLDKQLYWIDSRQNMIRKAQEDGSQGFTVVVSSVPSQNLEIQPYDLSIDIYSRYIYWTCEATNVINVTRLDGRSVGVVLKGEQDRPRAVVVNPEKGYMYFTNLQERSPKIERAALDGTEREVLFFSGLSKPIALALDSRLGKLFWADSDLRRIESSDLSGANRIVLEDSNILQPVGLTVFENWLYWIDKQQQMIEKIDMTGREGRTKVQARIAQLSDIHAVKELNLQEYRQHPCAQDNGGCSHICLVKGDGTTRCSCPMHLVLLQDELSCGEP

T3: biotinylated-LRP6 CRD (UniProt O75581 631-1246, limits assumed, biotinylated)
T3 construct: LRP6 has no CRD
T3 sequence (looked up): T2 sequence

B1: 013S-G04 (HC SEQ ID NO 15) (VHH)
VHH: AVQLVESGGGLVQAGGSLRLACAGSGRIFAIYDIAWYRQAPGNQRELVATIRPVVSETTYADAVKGRFTISRSNAMKTVYLQMNSLKSEDTAIYYCNAKRPWGTRDEYWGQGTLVTVSS
B2: 009S-B04 (VHH)
VHH: DVQLVESGGGLVQPGGSLRLSCAASGSIFMINTMAWYRQAPGNQRELVATIRPVVSETTYADAVKGRFTISRDNAKNTVYLQMNSLKSEDTAIYYCNAKRPWGTRDEYWGQGTLVTVSS
B3: 009S-G04 (VHH)
VHH: EVQLVESGGGLVQAGGSLRVSCAASGGTFSRYHMGWFRQAPGKEREFVSAITWSGGRTYYADFVKGRFTISRDDARNTVYLQMSSLKPEDTAVYYCALTWAPTPTNRRSDYAYWGQGTQVTVSS
B4: 009S-H03 (VHH)
VHH: DVQLVESGGGLVQAGESLRLSCAASGSIFSINTMGWYRQAPGKERELVAVITSGGKTVYADSVKGRFTITEDAAKNTVYLQMNSLKAEDTAVYYCYADSRSSWYDEYLEHWGQGTLVTVSS
B5: 001S-F11 (VHH)
VHH: QVQLVESGGGLVQAGGSLRLSCAASGRTFSSYAMSWFRQAPGKEREFVAVIGRSGGIKYYADSVKGRFTISRDNTINTVYLQMNNLTPEDTAIYYCATRRPFNSYNTEQSYDSWGRGTLVTVSS
B6: 009S-A03 (VHH)
VHH: QVQLVESGGGLVQAGDSLRLSCVVSGRTFSVYGVGWFRQAPGKEREVVAAVSASGGYTWYADSVKGRFTISRDNAKSTAFLQMNSLQPEDTAVYYCKAAPRWGGATAYWGQGTQVTVSS
B7: 013S-D05 (HC SEQ ID NO 23) (VHH)
VHH: QVKLEESGGGLVQAGGSLRLSCAASGRIFSIYDMGWFRQAPGKEREFVSGIRWSGGTSYADSVKGRFTISKDNAKNTIYLQMNNLKAEDTAVYYCGSRGYWGQGTLVTVSS
B8: 009S-A05 (VHH)
VHH: AVQLVDSGGGLVQAGDSLTLSCAASGRTFSDYSMGWFRQAPGKEREFVAGISWIADNRYYADVVKGRFTISRDNAKNTVYLQMNSLKPEDTAVYYCTAGRSRYLYGSSLNGPYDYWGQGTQVTVSS
B9: 013S-H04 (HC SEQ ID NO 20) (VHH)
VHH: AVQLVDSGGGLVQAGGSLRLSCAVSGRTFSMYDMGWFRQAPGKEREFVASIRWSSGNTWYADSMKGRFTISRDNAKNTVYLQMNSLKPEDTAVYYCYANIYYTRRAPEEYWGQGTLVTVSS
B10: 013S-G04 (HC SEQ ID NO 19) (VHH)
VHH: B1 VHH
B11: 009S-F04 (VHH)
VHH: AVQLVESGGGVVQAGDSLTLSCTMSGRSLSSFAMGWFRRAPGKEREFVARISRGDGYTDEADSVKGRFTISRDNAKNTVYLQMNNVGPEDTAVYHCAAVQAVIGGTLTTAYDYWGQGTLVTVSS
B12: 013S-C05 (HC SEQ ID NO 22) (VHH)
VHH: EVQLVESGGGLVQPGGSLRLSCAVSRNIFPIDDMSWYRQAPGKQRELVATVTSGGRINYADSVKGRFTISRDGARRTIDLQMNNLKPEDTAVYYCNVDRTLYGKYKEYWGQGTLVTVSS
B13: 013S-A05 (VHH)
VHH: EVQLVESGGGLVQAGGSLRLSCATSGRTFNTYAMGWFRQAPGKEREFVASVSWRYDRTYYTDTVKGRFTISRDNAKNTVYLQMNSLKPEDTAVYFCAADTNWRAGPRVGIDEYAYWGQGTLVTVSS
B14: 009S-E04 K1A (VHH)
VHH: DVQLVESGGGLVQAGGSLRLACAGSGRIFAIYDIAWYRHPPGNQRELVAMIRPVVTEIDYADSVKGRFTISRNNAMKTVYLQMNNLKPEDTAVYYCNAARPWGSRDEYWGQGTQVTVSS
B15: 009S-E04 E9A (VHH)
VHH: B14 VHH with A99K, E107A
B16: 009S-E04 R2A (VHH)
VHH: B14 VHH with A99K, R100A
B17: 009S-E04 D8A (VHH)
VHH: B14 VHH with A99K, D106A
B18: 009S-E04 S6A (VHH)
VHH: B14 VHH with A99K, S104A
B19: 009S-E04 W4A (VHH)
VHH: B14 VHH with A99K, W102A
B20: 009S-E04 G5A (VHH)
VHH: B14 VHH with A99K, G103A
B21: 009S-E04 R7A (VHH)
VHH: B14 VHH with A99K, R105A
B22: 009S-E04 Y10A (VHH)
VHH: B14 VHH with A99K, Y108A
B23: 009S-E04 P3A (VHH)
VHH: B14 VHH with A99K, P101A

Residue numbers refer to the chain shown, from its start. Names may count otherwise.

The target in one assay is T1, LRP6e1e2. As to the kind of experiment: Octet BLI. How it is done:
(§1) Binding kinetics of antibody fragments to LRP5 extracellular domain (LRP5 ECD) and/or LRP6 extracellular domain (LRP6 ECD) protein targets was determined by bio-layer interferometry (BLI) using Octet Red 96 (PALL ForteBio, Fremont, Calif.) instruments at 30° C., 1000 rpm with streptavidin (SA) biosensors. C-terminal biotinylated LRP ECD recombinant protein was diluted to 20 nM in the running buffer (PBS, 0.05% Tween-20, 0.5% BSA, pH 7.2) and captured to the SA biosensor until coupling length reached 0.2 nm. Following capture of the LRP5 or LRP6, the SA biosensor with captured biotinylated-LRP5 or biotinylated LRP6 was dipped into wells containing the relevant antibody fragment at […] (0, 1.37, 4.12, 12.4, 37, 111.1, 333.3, 1000 nM) in running buffer, plus a well with only running buffer as a reference channel. KD was determined by global fitting, 1:1 binding model according to manufacturer recommended settings.
As to B1, the binding result was “no binding”.

Regarding B2, the binding result is “no binding”.

Take B3: the binding result was “no binding”.

The next assay has as its target T1, LRP6e1e2. The assay is described as follows: Octet BLI or BIAcore SPR.
As to B4, the dissociation constant Kd was < 500 nM.

On to B5, for which the Kd was < 500 nM.

On to B6, for which the Kd is < 500 nM.

Another assay concerns the target T2, LRP6E3E4_O75581_631-1246. As to the kind of experiment: Octet BLI or BIAcore SPR.
As for B7, the Kd was < 500 nM.

For the molecule B8, the dissociation constant Kd is > 500 nM.

For B9, the equilibrium dissociation constant (Kd) was < 500 nM.

As for B1, the dissociation constant (Kd) was < 500 nM.

For B10, the Kd is < 500 nM.

Consider B2, for which the Kd is < 500 nM.

B3: the Kd was < 500 nM.

Take B11: the equilibrium dissociation constant (Kd) is > 500 nM.

Regarding B12, the Kd is < 500 nM.

As to B13, the dissociation constant Kd was > 500 nM.

Another assay deals with T1, LRP6e1e2. The assay is described as follows: Octet BLI, affinity class. The protocol: as §1
B4: the equilibrium dissociation constant (Kd) was < 500 nM.

As to B6, the Kd is < 500 nM.

The next assay addresses T2, LRP6E3E4_O75581_631-1246. The assay is described as follows: Octet BLI, affinity class. How it is done: as §1
On to B8, for which the Kd is > 500 nM.

For B1, the Kd is < 500 nM.

For B2, the Kd is < 500 nM.

Regarding B3, the dissociation constant Kd was < 500 nM.

Turning to B11, the Kd is > 500 nM.

Take B4: the Kd is < 500 nM.

With B6, the Kd was > 500 nM.

Another assay addresses T3, biotinylated-LRP6 CRD. As to the kind of experiment: Octet BLI, biotinylated LRP6. How it is done:
as §1
One antibody fragment, 009S-E04, was selected for alanine-scanning mutagenesis of CDRs, and the respective LRP6 binding affinities of the various mutants were determined by Octet BLI as described in Example 1.
For the molecule B14, the dissociation constant Kd was < 100 nM.

With B15, the Kd was < 100 nM.

On to B16, for which the equilibrium dissociation constant (Kd) is < 100 nM.

With B17, the Kd is < 100 nM.

As for B18, the Kd was < 100 nM.

Turning to B19, the Kd is < 100 nM.

Turning to B20, the Kd is < 100 nM.

Regarding B21, the Kd was < 100 nM.

B22: the Kd is < 100 nM.

In the case of B23, the Kd was < 100 nM.

Values taken from US20210079089A1 (SURROZEN OPERATING, published 2021).
